Reference: article PMC10509265

Target: IP3R-type 2 (UniProt Q9Z329)
Experiment: anti-IP3R2 co-IP from heart lysate
Details: reference: wild type heart after TAC; sites S14

binding against the reference: stronger
Substance: Bcl-xL (from UniProt Q64373) S14A knock-in heart after TAC
